Measured values as given in publication PMC12506513, “Conformational dynamics of the bacterial E3 ligase SspH1” (The Journal of Biological Chemistry, 2025).

B2: ΔNSspH1 (161-700) (domain or fragment)
chain: AEYDAVWSKWERDAPAGESPGRAAVVQEMRDCLNNGNPVLNVGASGLTTLPDRLPPHITTLVIPDNNLTSLPELPEGLRELEVSGNLQLTSLPSLPQGLQKLWAYNNWLASLPTLPPGLGDLAVSNNQLTSLPEMPPALRELRVSGNNLTSLPALPSGLQKLWAYNNRLTSLPEMSPGLQELDVSHNQLTRLPQSLTGLSSAARVYLDGNPLSVRTLQALRDIIGHSGIRIHFDMAGPSVPREARALHLAVADWLTSAREGEAAQADRWQAFGLEDNAAAFSLVLDRLRETENFKKDAGFKAQISSWLTQLAEDAALRAKTFAMATEATSTCEDRVTHALHQMNNVQLVHNAEKGEYDNNLQGLVSTGREMFRLATLEQIAREKAGTLALVDDVEVYLAFQNKLKESLELTSVTSEMRFFDVSGVTVSDLQAAELQVKTAENSGFSKWILQWGPLHSVLERKVPERFNALREKQISDYEDTYRKLYDEVLKSSGLVDDTDAERTIGVSAMDSAKKEFLDGLRALVDEVLGSYLTARWRLN
notes: also called WT SspH1; source: E. coli BL21 Gold, purified (nickel-nitrilotriacetic acid resin, 3C protease, gel filtration)

Assays:
Settings in all cases: both partners purified
[1] = target: T1, full-length SspH1 (1 to 700) (Salmonella, UniProt D0ZVG2 1-700); assay: SEC-MALS; SEC-MALLS of FL SspH1 and ΔNSspH1 alone and with the substrate PKN1; in the range of concentrations explored
T1 construct: also called FL SspH1; FL protein; source: E. coli BL21 Gold, purified (nickel-nitrilotriacetic acid resin, 3C protease, gel filtration)
T1 sequence: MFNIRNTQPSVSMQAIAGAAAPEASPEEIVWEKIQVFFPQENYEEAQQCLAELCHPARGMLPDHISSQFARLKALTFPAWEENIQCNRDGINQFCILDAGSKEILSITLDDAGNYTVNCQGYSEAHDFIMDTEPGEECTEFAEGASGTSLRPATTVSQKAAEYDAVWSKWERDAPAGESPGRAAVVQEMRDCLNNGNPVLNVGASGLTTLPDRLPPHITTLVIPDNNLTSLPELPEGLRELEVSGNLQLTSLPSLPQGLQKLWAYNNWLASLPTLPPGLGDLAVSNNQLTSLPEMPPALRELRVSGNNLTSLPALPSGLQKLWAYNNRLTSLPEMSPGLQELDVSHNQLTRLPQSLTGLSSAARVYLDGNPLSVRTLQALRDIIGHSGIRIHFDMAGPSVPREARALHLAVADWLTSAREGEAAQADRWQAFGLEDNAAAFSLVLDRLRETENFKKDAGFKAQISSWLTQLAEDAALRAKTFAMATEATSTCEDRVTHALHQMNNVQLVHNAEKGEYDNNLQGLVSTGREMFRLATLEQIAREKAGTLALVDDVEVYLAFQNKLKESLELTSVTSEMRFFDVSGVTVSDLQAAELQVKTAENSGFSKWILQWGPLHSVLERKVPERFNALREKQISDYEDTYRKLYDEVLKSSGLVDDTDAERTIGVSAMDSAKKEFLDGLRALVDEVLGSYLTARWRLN

[2] = target: B2; assay: as above
[3] = target: T2, 15N-labeled ubiquitin (UniProt P0CG48 1-76, 15N isotope-enriched); assay: NMR titration; 15N-Ub titrated with SspH1 constructs; 1H-15N HSQC, 800 MHz; chemical shift perturbations and line broadening of Ub backbone amides
T2 construct: also called 15N-Ub; free Ub

B1: PKN1 HR1b domain (residues 122-199) (domain or fragment)
chain: not shown
notes: also called HR1b PKN1; substrate PKN1; source: E. coli BL21 Gold, purified (nickel-nitrilotriacetic acid resin, 3C protease, gel filtration)
With B1 the “stoichiometry N” value [1] was 1 and the “stoichiometry N” value [2] was 1.

B2: binds [3].

B3: E487R SspH1 (domain or fragment)
chain: AEYDAVWSKWERDAPAGESPGRAAVVQEMRDCLNNGNPVLNVGASGLTTLPDRLPPHITTLVIPDNNLTSLPELPEGLRELEVSGNLQLTSLPSLPQGLQKLWAYNNWLASLPTLPPGLGDLAVSNNQLTSLPEMPPALRELRVSGNNLTSLPALPSGLQKLWAYNNRLTSLPEMSPGLQELDVSHNQLTRLPQSLTGLSSAARVYLDGNPLSVRTLQALRDIIGHSGIRIHFDMAGPSVPREARALHLAVADWLTSAREGEAAQADRWQAFGLEDNAAAFSLVLDRLRETENFKKDAGFKAQISSWLTQLAEDAALRAKTFAMATRATSTCEDRVTHALHQMNNVQLVHNAEKGEYDNNLQGLVSTGREMFRLATLEQIAREKAGTLALVDDVEVYLAFQNKLKESLELTSVTSEMRFFDVSGVTVSDLQAAELQVKTAENSGFSKWILQWGPLHSVLERKVPERFNALREKQISDYEDTYRKLYDEVLKSSGLVDDTDAERTIGVSAMDSAKKEFLDGLRALVDEVLGSYLTARWRLN
notes: also called E487R mutant; source: E. coli BL21 Gold, purified (nickel-nitrilotriacetic acid resin, 3C protease, gel filtration)
B3: binds [3].

B4: SspH1 NEL domain (405 to 700) (domain or fragment)
chain: RALHLAVADWLTSAREGEAAQADRWQAFGLEDNAAAFSLVLDRLRETENFKKDAGFKAQISSWLTQLAEDAALRAKTFAMATEATSTCEDRVTHALHQMNNVQLVHNAEKGEYDNNLQGLVSTGREMFRLATLEQIAREKAGTLALVDDVEVYLAFQNKLKESLELTSVTSEMRFFDVSGVTVSDLQAAELQVKTAENSGFSKWILQWGPLHSVLERKVPERFNALREKQISDYEDTYRKLYDEVLKSSGLVDDTDAERTIGVSAMDSAKKEFLDGLRALVDEVLGSYLTARWRLN
notes: also called isolated NEL domain; source: E. coli BL21 Gold, purified (nickel-nitrilotriacetic acid resin, 3C protease, gel filtration)
B4: binds [3].
